Source: patent US20020115066A1, “Viral therapeutics” (priority 1998, published 2002)

What was measured:
[1] = tested on: ADRP; settings: cited from earlier work
[2] = tested on: ADRP; assay: Effect of expression of core proteins on the ability to detect ADRP in BHK C13 cells by confocal microscopy; format: cell-based, hamster; settings: 20 hours after electroporation, anti-adipophilin antibody
Protocol: Cells were harvested 20 hours after electroporation and fixed with methanol. ADRP was detected with anti-adipophilin antibody and core protein with 308 antisera. Secondary antibodies were an anti-mouse IgG conjugated with FITC (for anti-adipophilin) and anti-rabbit IgG conjugated with Cy5 (for 308 antisera). Panels A, D, G, J, M and P are images of ADRP localization. Panels B, E, H, K, N, and Q are images of core distribution. Panels C, F, I, L, O and R show the merged images of core and ADRP distributions. Cells were electroporated with RNA from the following constructs: panels A, B and C, pSFV.1-195; panels D, E and F, pSFV.1-173; panels G, H and I, pSFV.1-169; panels J, K and L, pSFV.1-153; panels M, N and O, pSFV.Δ155-161; panels P, Q and R, pSFV.Δ161-166.
(§1) 0.8 ml of competent cells were mixed with in vitro transcribed RNA in an electroporation cuvette (0.4 cm gap) and pulsed twice at either 1.2 kV, 25 μF (for BHK C13 cells) or 0.36 kV, 960 μF (for MCA RH7777 cells). Between pulses, the cell/RNA suspension was gently mixed. Following electroporation, cells were diluted in growth medium and seeded onto either tissue culture dishes or coverslips in 24-well tissue culture plates and then incubated at 37° C.
(§2) Cells on 13 mm coverslips were fixed in either methanol at −20° C. or 4% paraformaldehyde, 0.1% Triton X-100 (prepared in PBS) at 4° C. for 30 mins. Following washing with PBS and blocking with PBS/CS (PBS containing 1% newborn calf serum), cells were incubated with primary antibody (diluted in PBS/CS at 1/200 for JM122 antibody, 1/1000 for 308 antisera and 1/100 for adipophilin antibody) for 2 hours at room temperature. Cells were washed extensively with PBS/CS and then incubated with conjugated secondary antibody (either anti-mouse or anti-rabbit IgG raised in goat) for 2 hours at room temperature. Cells were washed extensively in solutions of PBS/CS followed by PBS and finally H2O before mounting on slides using Citifluor. Samples were analyzed using a Leiss LSM confocal microscope.

[3] = tested on: ADRP; assay: Effect of expression of core protein on the abundance of ADRP (Western blot); format: cell-based, hamster; settings: BHK C13 cells, extracts at various times following electroporation
Protocol: BHK C13 cells were electroporated with RNA from pSFV.1-195 and pSFV.1-153 and extracts were prepared at the times indicated following electroporation. Aliquots of cell extracts were electrophoresed on 10% polyacrylamide gels and then the proteins were transferred to nitrocellulose membrane for Western blot analysis. The upper panels show membranes probed with JM122 antibody while, in the lower panels, membranes were probed with anti-adipophilin antibody. Bands corresponding to core proteins, expressed from pSFV.1-195 and pSFV.1-153, and ADRP are arrowed.
To prepare extracts, electroporated cells were harvested by removing the growth medium and washing the cell monolayers with PBS. Cells were scraped into PBS and pelleted by centrifugation at 100 g for 5 mins at 4° C. The cell pellet was solubilized in sample buffer consisting of 160 mM Tris (pH 6.7), 2% SDS, 700 mM β-mercaptoethanol, 10% glycerol, 0.004% bromophenol blue.
For Western blot analysis, proteins were separated on polyacrylamide gels and transferred to nitrocellulose membrane using standard techniques. The nitrocellulose membrane was blocked in 3% gelatin, 20 mM Tris (pH 7.5), 500 mM NaCl for at least 6 hours at 37° C. prior to incubation with the primary antibody. […] Bound antibody was detected by enhanced chemiluminescence.

[4] = tested on: lipid droplets; assay: Intracellular localization of core proteins and lipid droplets (indirect immunofluorescence, oil red O, confocal microscopy); format: cell-based, hamster; settings: BHK C13 cells, 20 hours after electroporation, antibody JM122 and oil red O
Protocol: BHK C13 cells were harvested 20 hours after electroporation and fixed with 4% paraformaldehyde, 0.1% Triton X-100. Indirect immunofluorescence was performed with antibody JM122 and an anti-mouse secondary antibody conjugated with FITC. Lipid droplets were stained with oil red O. Panels A, D, G, J, M, P, S and V show the distributions of core protein. Panels B, E, H, K, N, Q, T and W show the locations of lipid droplets. Panels C, F, I, L, O, R, U and X are merged images of core protein and lipid droplets. Cells were electroporated with RNA from the following constructs: panels A, B and C, pSFV.1-195; panels D, E and F, pSFV.1-173; panels G, H and I, pSFV.1-169; panels J, K and L, pSFV.1-153; panels M, N and O, pSFV.Δ155-161; panels P, Q and R, pSFV.Δ161-166; panels S, T and U, pSFVA125-144; panels V, W and X, pSFV.1-124, 145-152.
as §1, §2
Following incubation with both antibodies and washing, lipid droplets were stained in paraformaldehyde-fixed cells by briefly rinsing coverslips in 60% propan-2-ol followed by incubation with 0.5 ml 60% propan-2-ol containing oil red O for 1.5-2 mins at room temperature. Coverslips were briefly rinsed with 60% propan-2-ol, washed with PBS and H2O and mounted as described above. The oil red O staining solution was prepared from a saturated stock of approximately 1% oil red O dissolved in propan-2-ol. Before staining, the stock was diluted with H2O and then filtered.
This conclusion was arrived at by combining the techniques of immune electron microscopy with the ability to stain lipid with osmium tetroxide. However, this method suffers from the disadvantages that it is time-consuming and osmium tetroxide can stain other biological molecules (e.g. proteins) in addition to lipid. Therefore, we developed a method for detecting proteins firstly by indirect immunofluorescence followed by staining of lipid droplets with the oil-soluble colorant oil red O. Combined with the method of confocal microscopy, it is possible to visualize the intracellular localizations of core protein and lipid droplets separately and together. Here, BHK C13 cells have been electroporated with pSFV.1-195 RNA and, following incubation at 37° C. for 20 hours, the cells have been examined by both indirect immunofluorescence and staining with oil red O. In panel A, the core protein produced by pSFV.1-195 is seen to locate to vesicular structures in the cytoplasm.

Molecule | ADRP expression [1] | ADRP detected by immunofluorescence in core-expressing cells [2] | abundance of ADRP by Western blot [3] | intracellular localization of core protein relative to lipid droplets [4]
CC(C)Cc1ccc(C(C)C(=O)O)cc1 (stereo not drawn) [ibuprofen] | stimulate ADRP expression | – | – | –
COc1ccc2c(c1)c(CC(=O)O)c(C)n2C(=O)c1ccc(Cl)cc1 [indomethacin] | stimulate ADRP expression | – | – | –
pSFV.1-195: SFV construct encoding the N-terminal 195 amino acids of HCV strain Glasgow (core protein) (protein) GACECPGRSRRPCTMSTNPKPQRKTKRNTNRRPQDVKFPGGGQIVGGVYLLPRRGPRLGVRATRKTSERSQPRGRRQPIPKARRPKGRNWAQPGYPWPLYGNEGCGWAGWLLSPSGSRPSWGPNDPRRRSRNLGKVIDTLTCGFVDLMGYIPLVGAPLRGAARALAHGVRVLEDGVNYATGNLPGCSFSIFLLAL | – | either lacked or contained barely detectable amounts of ADRP | rapid reduction in ADRP levels to barely detectable quantities | sited around the lipid droplets
pSFV.Δ155-161: construct lacking the sequences encoding residues 155 to 161 of the core protein of HCV strain Glasgow (protein) GACECPGRSRRPCTMSTNPKPQRKTKRNTNRRPQDVKFPGGGQIVGGVYLLPRRGPRLGVRATRKTSERSQPRGRRQPIPKARRPKGRNWAQPGYPWPLYGNEGCGWAGWLLSPSGSRPSWGPNDPRRRSRNLGKVIDTLTCGFVDLMGYIPLVARALAHGVRVLEDGVNYATGNLPGCSFSIFLLAL | – | barely detectable | – | did not affect lipid droplet association
pSFV.Δ161-166: construct lacking the sequences encoding residues 161 to 166 of the core protein of HCV strain Glasgow (protein) GACECPGRSRRPCTMSTNPKPQRKTKRNTNRRPQDVKFPGGGQIVGGVYLLPRRGPRLGVRATRKTSERSQPRGRRQPIPKARRPKGRNWAQPGYPWPLYGNEGCGWAGWLLSPSGSRPSWGPNDPRRRSRNLGKVIDTLTCGFVDLMGYIPLVGAPLRGHGVRVLEDGVNYATGNLPGCSFSIFLLAL | – | readily found | – | diffuse cytoplasmic pattern
pSFV.1-173: SFV construct encoding amino acid residues 1-173 of HCV strain Glasgow core (protein) GACECPGRSRRPCTMSTNPKPQRKTKRNTNRRPQDVKFPGGGQIVGGVYLLPRRGPRLGVRATRKTSERSQPRGRRQPIPKARRPKGRNWAQPGYPWPLYGNEGCGWAGWLLSPSGSRPSWGPNDPRRRSRNLGKVIDTLTCGFVDLMGYIPLVGAPLRGAARALAHGVRVLE | – | barely detectable | – | continue to locate to lipid droplets
pSFV.1-169: SFV construct encoding amino acid residues 1-169 of HCV strain Glasgow core (protein) GACECPGRSRRPCTMSTNPKPQRKTKRNTNRRPQDVKFPGGGQIVGGVYLLPRRGPRLGVRATRKTSERSQPRGRRQPIPKARRPKGRNWAQPGYPWPLYGNEGCGWAGWLLSPSGSRPSWGPNDPRRRSRNLGKVIDTLTCGFVDLMGYIPLVGAPLRGAARALAHGV | – | barely detectable | – | continue to locate to lipid droplets
pSFV.1-153: SFV construct encoding amino acid residues 1-153 of HCV strain Glasgow core (protein) GACECPGRSRRPCTMSTNPKPQRKTKRNTNRRPQDVKFPGGGQIVGGVYLLPRRGPRLGVRATRKTSERSQPRGRRQPIPKARRPKGRNWAQPGYPWPLYGNEGCGWAGWLLSPSGSRPSWGPNDPRRRSRNLGKVIDTLTCGFVDLMGYIPL | – | readily found | no change in the abundance of ADRP | do not associate with lipid droplets
pSFV.1-124,145-152: core variant truncated at residue 152 and lacking amino acids 125 to 144 (protein) GACECPGRSRRPCTMSTNPKPQRKTKRNTNRRPQDVKFPGGGQIVGGVYLLPRRGPRLGVRATRKTSERSQPRGRRQPIPKARRPKGRNWAQPGYPWPLYGNEGCGWAGWLLSPSGSRPSWGPNVDLMGYIP | – | – | – | diffuse fluorescence
pSFV.Δ125-144: construct expressing a core variant in which residues 125 to 144 had been deleted (protein) GACECPGRSRRPCTMSTNPKPQRKTKRNTNRRPQDVKFPGGGQIVGGVYLLPRRGPRLGVRATRKTSERSQPRGRRQPIPKARRPKGRNWAQPGYPWPLYGNEGCGWAGWLLSPSGSRPSWGPNVDLMGYIPLVGAPLRGAARALAHGVRVLEDGVNYATGNLPGCSFSIFLLAL | – | – | – | diffuse fluorescence
